Measured values taken from the supplement of paper PMC7125110.
± gives the standard error. This sample holds only a part of the variants without activity.

B1: glmS ribozyme (parent)
chain: AUAAAAGCGCCAGAACUACAGAAAUGUAGUUGACGAGGAGGAGGUUUAUCGAAUUUUCGGCGGAUGCCUCCAAA

Legend:
Conditions in all cases: with glucosamine-6-phosphate
glucosamine-6-phosphate [1] = variants of: B1; test: self-cleavage kobs at 640 uM GlcN6P; higher = faster cleavage; RNA array
Outline: (§1)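 Barcoded glmS ribozyme variants on sequenced MiSeq chips were transcribed in situ by E. coli RNA polymerase and tracked through a hybridised Cy3 probe at 37 °C. Glucosamine-6-phosphate (40 μM to 10 mM) in HEPES/KCl/Mg(OAc)2 buffer was flowed in, and tiles were imaged over ~14 h. Signals were normalised to baseline and to non-cleaving reference variants; per-tile medians were fit to one- or two-exponential decays to give kobs. kcat and KM came from weighted Michaelis–Menten fits across concentrations.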

glucosamine-6-phosphate [2] = variants of: B1; test: self-cleavage kobs at 2500 uM GlcN6P; higher = faster cleavage; RNA array
Outline: as §1

glucosamine-6-phosphate [3] = variants of: B1; test: self-cleavage kobs at 10000 uM GlcN6P; higher = faster cleavage; RNA array
Outline: as §1

Variant | self-cleavage kobs at 640 uM GlcN6P (glucosamine-6-phosphate [1]) [s⁻¹] | self-cleavage kobs at 2500 uM GlcN6P (glucosamine-6-phosphate [2]) [s⁻¹] | self-cleavage kobs at 10000 uM GlcN6P (glucosamine-6-phosphate [3]) [s⁻¹]
G38C C58A C71U | < 1e-05 |  | 
G32U U46G C50G | 0.000215 ± 4.7e-05 | 9.4e-05 ± 3.4e-05 | 
C34A A42C C61U | < 1e-05 | < 1e-05 | 
C34G A48G C70U | < 1e-05 |  | 
C34U G38U U46C U56G G60U | < 1e-05 |  | 
G40C G44C C61U | < 1e-05 | < 1e-05 | 
U31G G44U G62U | < 1e-05 | < 1e-05 | 
C34A G35U A42C | < 1e-05 |  | 
G37A U56G A64U | < 1e-05 | < 1e-05 | 
C34U G38U A42G | < 1e-05 | < 1e-05 | 
G38U A48U C61G C71U | < 1e-05 |  | 
G37U G44C U47C G63A | < 1e-05 | < 1e-05 | 
A33U G41C G51U U55A | < 1e-05 |  | < 1e-05
C34A C67U | < 1e-05 | < 1e-05 | 
G32A A53G U56G | 7.56e-05 ± 2.8e-05 | 0.000272 ± 8.6e-05 | 
A39G G51A | < 1e-05 | < 1e-05 | 
G32U C58A C70G | 0.000218 ± 7.9e-05 | 0.000221 ± 5.9e-05 | 
G32U C34U A36G G51A C70G | 8.6e-05 ± 3.2e-05 |  | 
A36C G38U U49A | < 1e-05 | < 1e-05 | 
G35C G41U A64G | < 1e-05 |  | 
A33U G35A A39G G44U C61U G62U | < 1e-05 | < 1e-05 | 
A33G A36G U47G C71G | 0.000121 ± 4.4e-05 |  | 
G35A G41U U54C | < 1e-05 | < 1e-05 | 
G38U U47G C68U | 0.000119 ± 4e-05 |  | 
U31C A36C U45G U65G C71U | < 1e-05 | < 1e-05 | 
G32C G51U C70A | 0.000153 ± 5.2e-05 |  | 7.14e-05 ± 3e-05

Variant | self-cleavage kobs at 640 uM GlcN6P (glucosamine-6-phosphate [1]) [s⁻¹] | self-cleavage kobs at 2500 uM GlcN6P (glucosamine-6-phosphate [2]) [s⁻¹] | self-cleavage kobs at 10000 uM GlcN6P (glucosamine-6-phosphate [3]) [s⁻¹]
U31C A39U C67A | 0.000787 ± 0.00025 | 0.000712 ± 0.00021 | 0.000846 ± 0.0002
G35C G43U C61U | < 1e-05 | < 1e-05 | 
C34U A39C A53U | < 1e-05 | < 1e-05 | 
U30G A39C U55G | 0.000198 ± 5.5e-05 | 0.000726 ± 0.00014 | 0.00144 ± 0.00047
G35U G44C G66U | < 1e-05 |  | 
G35U G38A G51U | < 1e-05 |  | 
A39U A48G G60C | < 1e-05 | < 1e-05 | 
A39U G43C C70G | < 1e-05 | < 1e-05 | 
C34G G35A G63U | < 1e-05 |  | < 1e-05
A33G A39C G41A C50A | < 1e-05 |  | 
C34A A39C G41A G66U | < 1e-05 | < 1e-05 | 
A33U G37A G59A | < 1e-05 |  | 
C34A G38U A53G | < 1e-05 |  | 
C34G G37U A39G C58U C61G | 0.00305 ± 0.001 |  | 
G40A U65G G66U | 0.00012 ± 2.6e-05 | 0.000547 ± 0.00026 | 
G32C G35C U47C C58U | < 1e-05 |  | 
G37A A64U C71U | < 1e-05 | < 1e-05 | 
U31A G44A C67U | 0.00323 ± 0.0014 | 0.00757 ± 0.0024 | 0.00871 ± 0.0018
G37U U55G U69G | 3.09e-05 ± 1.4e-05 |  | 
G38A G44A G51U U54G | < 1e-05 |  | 
U31C G37A C70G | < 1e-05 |  | 
A36G A39G G40U | < 1e-05 | < 1e-05 | < 1e-05
G35A G60U C70G | < 1e-05 | < 1e-05 | 
G32C G44U G51U A53U C58G | < 1e-05 |  | 
U30G U47C | 0.000187 ± 6.5e-05 | 0.00013 ± 6.3e-05 | 
A36U C61U C71U | < 1e-05 |  | < 1e-05

Variant | self-cleavage kobs at 640 uM GlcN6P (glucosamine-6-phosphate [1]) [s⁻¹] | self-cleavage kobs at 2500 uM GlcN6P (glucosamine-6-phosphate [2]) [s⁻¹] | self-cleavage kobs at 10000 uM GlcN6P (glucosamine-6-phosphate [3]) [s⁻¹]
C34U G40U A53U C58U G60U C61A C68A | < 1e-05 |  | 
G32C C67G U69G | < 1e-05 |  | < 1e-05
G32U G51A U57A | < 1e-05 | < 1e-05 | 
G32C A42U G60A | < 1e-05 |  | 
U31G G32A U54C | 0.000129 ± 3.8e-05 | 0.000702 ± 0.00023 | 
G35C G38U | < 1e-05 | < 1e-05 | 
A36G U49A G63U | < 1e-05 |  | 
A33C C50U G60U | < 1e-05 |  | 
G35U A39C C71U | < 1e-05 | < 1e-05 | 
U31C A42G C70U | 0.000788 ± 0.00029 |  | 
G38C U46C G59U U65C C67A | < 1e-05 | < 1e-05 | 
U31A G32C G60A G66A | < 1e-05 |  | 
G37U G38U G43A | < 1e-05 |  | 
A39U A48U A53C | < 1e-05 |  | 
G35C G60A C71U | < 1e-05 |  | 
A36U U65C C70G | 0.000173 ± 7.9e-05 |  | 
U30G G37U G40U | < 1e-05 | < 1e-05 | 
G32U C34A | < 1e-05 | < 1e-05 | < 1e-05
G38U A42G A53U | < 1e-05 |  | 
G32A G35U U57A | < 1e-05 |  | 
A39G G51C U65C U69A C70A | < 1e-05 | < 1e-05 | 
G32C C70G | 0.000253 ± 8.1e-05 |  | 2.34e-05 ± 9.6e-06
G35A G40U G44U U45C A52U | < 1e-05 |  | 
G40C G43C C70A | < 1e-05 | < 1e-05 | 
G35U A42G A48U | < 1e-05 |  | 
G38C G43C C68U | < 1e-05 |  | 

Variant | self-cleavage kobs at 640 uM GlcN6P (glucosamine-6-phosphate [1]) [s⁻¹] | self-cleavage kobs at 2500 uM GlcN6P (glucosamine-6-phosphate [2]) [s⁻¹] | self-cleavage kobs at 10000 uM GlcN6P (glucosamine-6-phosphate [3]) [s⁻¹]
G32A G37C C61U C67U | < 1e-05 |  | 
G35U C58A A64U | < 1e-05 | < 1e-05 | 
A39G C50G C67U | 0.000571 ± 0.00018 | 0.000299 ± 0.00012 | 
C34U C58A G59U | < 1e-05 | < 1e-05 | 
G32U A52C C61U | < 1e-05 |  | 
G32U G35U A42U U56A U57A G62U | < 1e-05 | < 1e-05 | 
G32A A39G U46C | 0.000174 ± 4.5e-05 | 0.000355 ± 0.00011 | 
G40A A48U U56A G59U C68A | < 1e-05 | < 1e-05 | 
A33C C50A C68A | < 1e-05 | < 1e-05 | 
A33U G38U | < 1e-05 | < 1e-05 | < 1e-05
A36G G62A | < 1e-05 | < 1e-05 | < 1e-05
G35U G38U G41C | < 1e-05 | < 1e-05 | 
G32U A36U G44U A48G | < 1e-05 | < 1e-05 | 
A36C G43U G60U | < 1e-05 |  | 
G37A G63A C71A | < 1e-05 | < 1e-05 | 
A33U C34G | < 1e-05 | < 1e-05 | < 1e-05
A39C U46A U56G | 4.61e-05 ± 1.8e-05 |  | 
G37A A42C C61A | < 1e-05 |  | 
G37C U46G C50U | < 1e-05 |  | < 1e-05
A39G G62U C70U | < 1e-05 | < 1e-05 | 
G35U U57C | < 1e-05 | < 1e-05 | 
G40A G44U | < 1e-05 |  | 
U31C U56A | 0.00164 ± 0.00028 | 0.00201 ± 0.00053 | 
C34G G60A G62C U69G | < 1e-05 |  | 
C34G U45C G59U G62A G66A | < 1e-05 |  | 
A33C U54G A64C C70G | < 1e-05 | < 1e-05 | 

Variant | self-cleavage kobs at 640 uM GlcN6P (glucosamine-6-phosphate [1]) [s⁻¹] | self-cleavage kobs at 2500 uM GlcN6P (glucosamine-6-phosphate [2]) [s⁻¹] | self-cleavage kobs at 10000 uM GlcN6P (glucosamine-6-phosphate [3]) [s⁻¹]
G37U G38U C68A | 0.00155 ± 0.00045 |  | 
G35C G38A C68G | 0.00152 ± 0.00066 |  | 
C34A G43U U55C | < 1e-05 | < 1e-05 | 
G38C A42U G63A C68U | < 1e-05 |  | 
A36C G43U U45G U46C U65G | < 1e-05 | < 1e-05 | 
C34U G38A A42G | < 1e-05 |  | 
G35A G59A G62U | < 1e-05 |  | 
G32C G44U A64C | < 1e-05 |  | < 1e-05
G32U C34G G41C A53U A64C U65G | < 1e-05 | < 1e-05 | 
C34G G41U G51C C71G | < 1e-05 |  | 
G35C C58A C67U | < 1e-05 |  | 
G32U A39G | 0.0002 ± 3.6e-05 | 0.000485 ± 0.00015 | 
G38C C50G C67G | 6.94e-05 ± 1.3e-05 | 0.000141 ± 4.2e-05 | 
G35A G43C C68A | < 1e-05 | < 1e-05 | 
A33G A53C A64U | < 1e-05 |  | 
A36U G43U | < 1e-05 | < 1e-05 | 
G38C U49A | < 1e-05 | < 1e-05 | < 1e-05
A36G U45A C61U U69G C70A | < 1e-05 | < 1e-05 | 
A39G U49A G60U | < 1e-05 | < 1e-05 | 
U31G C58G C70G | 0.000104 ± 3.4e-05 |  | 
U30G G43A C67A | 9.35e-05 ± 3e-05 | 0.000157 ± 5.9e-05 | 
A36C U57C C67U | < 1e-05 | < 1e-05 | 
G32U U56A C67A | 0.000114 ± 2.4e-05 | 0.000294 ± 8.2e-05 | 
U31G G44A U46A G62C | < 1e-05 | < 1e-05 | 
